Consider two molecules from PMC2644375.

For assay [1], the target named is Nedd8 Cul1 (CFP)–Rbx1 (quantitatively neddylated) (UniProt Q13616). Description: FRET or BRET.
The target of assay [2] is Cul1 (CFP)–Rbx1 (human) (UniProt Q13616). Description: FRET or BRET. A general note: Bioluminescence resonance energy transfer reports proximity on the nanometre scale.
The target in assay [3] is SCF^Skp2 (unmodified) (human), Q13616.

In the case of “LG-labeled Cdc34 (from UniProt P49427 1-236) (enzyme)”, in assay [1], the fold lowering of Kd against unmodified Cul1 (CFP)–Rbx1 was determined as 3 fold. In assay [2], the dissociation constant Kd (usually a measure of binding affinity in units of concentration) stood at 82 nM.

B1: Cdc34, P49427 1-236 (enzyme)
chain: MARPLVPSSQKALLLELKGLQEEPVEGFRVTLVDEGDLYNWEVAIFGPPNTYYEGGYFKARLKFPIDYPYSPPAFRFLTKMWHPNIYETGDVCISILHPPVDDPQSGELPSERWNPTQNVRTILLSVISLLNEPNTFSPANVDASVMYRKWKESKGKDREYTDIIRKQVLGTKVDAERDGVKVPTTLAEYCVKTKAPAPDEGSDLFYDDYYEDGEVEEEADSCFGDDEDDSGTEES
In the case of B1, the Km for Cdc34 in ubiquitination of p27-Cdk2-CycE (multi-turnover, varying Cdc34) in assay [3] was 6.1 µM.
